{"source": "patent US10005838B2", "about": "“Milk fat globule epidermal growth factor 8 regulates fatty acid uptake” (REGENTS OF THE UNIVERSITY OF CALIFORNIA, priority 2013, dated 2018)", "molecules": {"B1": {"name": "rMfge8: recombinant Milk Fat Globule Epidermal Growth Factor 8, an integrin ligand, expressed in High 5 cells (protein)", "chain": "ASGDFCDSSLCLNGGTCLTGQDNDIYCLCPEGFTGLVCNETERGPCSPNPCYNDAKCLVTLDTQRGDIFTEYICQCPVGYSGIHCETETNYYNLDGEYMFTTAVPNTAVPTPAPTPDLSNNLASRCSTQLGMEGGAIADSQISASSVYMGFMGLQRWGPELARLYRTGIVNAWTASNYDSKPWIQVNLLRKMRVSGVMTQGASRAGRAEYLKTFKVAYSLDGRKFEFIQDESGGDKEFLGNLDNNSLKVNMFNPTLEAQYIKLYPVSCHRGCTLRFELLGCELHGCSEPLGLKNNTIPDSQMSASSSYKTWNLRAFGWYPHLGRLDNQGKINAWTAQSNSAKEWLQVDLGTQRQVTGIITQGARDFGHIQYVASYKVAHSDDGVQWTVYEEQGSSKVFQGNLDNNSHKKNIFEKPFMARYVRVLPVSWHNRITLRLELLGC"}}, "key": {"3T3-L1 adipocytes [1]": {"test_system": "3T3-L1 adipocytes", "test": "Triglyceride content of 3T3-L1 adipocytes", "assay_type": "cell-based, mouse", "conditions": "3T3-L1 cells; 2, 4, 6, and 8 days after treatment; 10 μg/ml", "description": "3T3-L1 (Zen-Bio) fibroblasts were differentiated into adipocytes as described previously (Liao, J. et al., J Lipid Res 46, 597-602 (2005)). Briefly, 3T3-L1 fibroblasts were cultured to confluence on 10 cm tissue culture plates or in 6-well tissue culture dishes in DMEM supplemented with 10% FBS and 25 mM HEPES (normal medium). 2 days after reaching confluence, media was change and 3-isobutyl-1methylxanthine (Calbiochem), dexamethasone (Sigma), and insulin (Sigma) were added to the normal medium at concentrations of 0.5 mM, 1 μM, and 5 μg/mL, respectively, to induce adipocyte differentiation. After 2 days (and every 2 days thereafter), media was replaced with normal medium supplemented with 5 μg/mL insulin. Cells were harvested for use 6-10 days after differentiation. The human hepatocellular carcinoma cell line HepG2 was a generous gift of Dr. Ethan Weiss. Cells were propagated in Eagle's MEM supplemented with 10% fetal bovine serum."}, "3T3-L1 adipocytes [2]": {"test_system": "3T3-L1 adipocytes", "test": "Glucose uptake assay (2-NBDG) in 3T3-L1 adipocytes", "assay_type": "cell-based, mouse", "description": "(§1) Uptake of […] by primary cells and cell lines was assessed using the fluorescent D-glucose analog 2-[N-(7-nitrobenz-2-oxa-1,3-diazol-4-yl)amino]-2-deoxy-D-glucose (2-NBDG) (Invitrogen). 2-NBDG has been successfully used as an alternative to 2-deoxyglucose in the measurement of glucose uptake in multiple cell types. Cells were plated in triplicate in 96-well plates at a concentration of 25,000 cells per well in 100 μl of DMEM/10% FCS. Plates were centrifuged at 1000 rpm for 4 minutes and incubated at 37° C. for 4-5 hours. Cells were then serum deprived for 1 hour before treatment with recombinant proteins for 20 minutes followed by the addition of 2-NBDG (100 μM) for 10 min at 37° C. in a humidified atmosphere of 5% CO2. Reaction was stopped by adding a twofold volume of ice-cold PBS and the wells were washed again with ice-cold PBS three times. The fluorescent signal before (autofluorescence) and after adding 100 μM 2-NBDG was measured using fluorescent plate reader at 37° C. (Molecular Device using the 485 nmex and 520 nmemiss filter set). The net increase in fluorescence was normalized to the lowest signal (0 cells/well). […]"}, "3T3-L1 adipocytes [3]": {"test_system": "3T3-L1 adipocytes", "test": "Fluorescent fatty acid uptake assay in 3T3-L1 adipocytes", "assay_type": "cell-based, mouse", "description": "Uptake of fatty acids by differentiated 3T3-L1 adipocytes or primary mouse adipocytes was assessed using a QBT Fatty Acid Uptake Kit (Molecular Devices). Cells were plated in triplicate in 96-well plates at a concentration of 25,000 cells per well in 100 μl of DMEM/10% FCS. Plates were centrifuged at 1000 rpm for 4 minutes and incubated at 37° Celsius for 4-5 hours. Cells were then serum deprived for 1 hour before treatment with recombinant proteins for 30 minutes followed by the addition of QBT Fatty Acid Uptake solution. […] Plates were incubated in a fluorescent plate reader at 37° Celsius and kinetic readings were acquired every 20 seconds for 30 minutes. Fluorescence values were plotted against time and data was expressed as relative fluorescent units per minutes×10^3. […]"}, "primary WT adipocytes": {"test_system": "primary WT adipocytes", "test": "Glucose uptake assay (2-NBDG) in primary WT adipocytes", "assay_type": "cell-based, mouse", "conditions": "insulin 1 μM", "description": "as §1"}, "Rictor at threonine 1135": {"test_system": "Rictor at threonine 1135", "test": "Western blot, Rictor phosphorylation in 3T3-L1 adipocytes", "assay_type": "cell-based, mouse", "description": "(§2) Following tissue preparation and SDS-PAGE, membranes were incubated with a polyclonal antibody against Akt (Cell Signaling Technology), or Rictor (Cell Signaling); Anti-PGC1 alpha antibody (abcam); a monoclonal antibody against Phospho-Akt Ser473 (Cell Signaling), Phospho-Rictor Thr1135 (Cell Signaling), GAPDH (Cell Signaling), or Mfge8 (R&D Systems). For evaluation of total AKT and total Rictor, membranes that been blotted for phospho-AKT and phospho-Rictor were stripped and reprobed. Plasma membrane and post-plasma membrane fractions were isolated as previously described (Nishiumi, S. & Ashida, H., Biosci Biotechnol Biochem 71, 2343-2346 (2007))."}, "primary hepatocytes": {"test_system": "primary hepatocytes", "test": "Fatty acid uptake in primary hepatocytes", "assay_type": "cell-based, mouse", "description": "Uptake of fatty acids by differentiated 3T3-L1 adipocytes or primary mouse adipocytes was assessed using a QBT Fatty Acid Uptake Kit (Molecular Devices). Cells were plated in triplicate in 96-well plates at a concentration of 25,000 cells per well in 100 μl of DMEM/10% FCS. Plates were centrifuged at 1000 rpm for 4 minutes and incubated at 37° Celsius for 4-5 hours. Cells were then serum deprived for 1 hour before treatment with recombinant proteins for 30 minutes followed by the addition of QBT Fatty Acid Uptake solution. […] Plates were incubated in a fluorescent plate reader at 37° Celsius and kinetic readings were acquired every 20 seconds for 30 minutes. Fluorescence values were plotted against time and data was expressed as relative fluorescent units per minutes×10^3.\nThe liver was pre-perfused through the portal vein with calcium-free buffer (0.5 mM EDTA, HBSS without Ca^2+ and Mg^2+) and next perfused with collagenase (3.5 U/ml Collegenase II (Worthington) 25 mM HEPES, HBSS with Ca^2+ and Mg^2+). […] Viability of isolated hepatocytes was determined by Trypan blue staining (around 85%) and cell density was approximately 60% confluence. […]"}, "AKT at serine 473": {"test_system": "AKT at serine 473", "test": "Western blot, AKT phosphorylation in 3T3-L1 cells", "assay_type": "cell-based, mouse", "description": "as §2"}, "HepG2 cells": {"test_system": "HepG2 cells", "test": "Fatty acid uptake in HepG2 cells", "assay_type": "cell-based", "conditions": "HepG2 human hepatocellular carcinoma cell line"}}, "note": "“Also recorded” adds a separate entry of the source.", "data": [{"molecule": "B1", "values": [{"measurement": "triglyceride content", "setting": "3T3-L1 adipocytes [1]", "value": "significantly greater"}, {"measurement": "effect of insulin on glucose uptake", "setting": "3T3-L1 adipocytes [2]; insulin 1 μM", "value": "significantly inhibited"}, {"measurement": "baseline glucose uptake", "setting": "3T3-L1 adipocytes [2]; without insulin", "value": "no difference; also recorded: no effect"}, {"measurement": "fatty acid uptake (BODIPY fatty acid analog)", "setting": "3T3-L1 adipocytes [3]", "value": "significantly increased"}, {"measurement": "effect of insulin on glucose uptake", "setting": "primary WT adipocytes", "value": "significantly inhibited"}, {"measurement": "phosphorylation of Rictor at threonine 1135", "setting": "Rictor at threonine 1135", "value": "phosphorylated"}, {"measurement": "fatty acid uptake in Mfge8−/− hepatocytes", "setting": "primary hepatocytes", "value": "rescued"}, {"measurement": "phosphorylation of AKT at serine 473", "setting": "AKT at serine 473", "value": "induced"}, {"measurement": "fatty acid uptake in HepG2 cells", "setting": "HepG2 cells", "value": "increased"}]}]}
